We go through 1 molecule from US20260250398A1 (published 2026).

What all share (assay): BLI; avid
A general note: Biolayer interferometry detects binding as a change in optical thickness at a sensor tip.

Assay [1] deals with ANT 98.
In assay [2] the target is ANT 80.
Assay [3] deals with ANT 99.

B1: FZD5 (receptor)
chain: ASKAPVCQEITVPMCRGIGYNLTHMPNQFNHDTQDEAGLEVHQFWPLVEIQCSPDLRFFLCSMYTPICLPDYHKPLPPCRSVCERAKAGCSPLMRQYGFAWPERMSCDRLPVLGRDAEVLCMDYNRSEATTAPPRPFPAKP
A word on the Kd: it is a measure of binding affinity in units of concentration. Low readings indicate higher affinity, high ones lower affinity. Turning to B1, the Kd in assay [1] is 2 nM; in assay [2], 0.05 nM; in assay [3], 0.4 nM.
